Changes are numbered by the printed parent chain.
T1: Recombinant human OX40/His (UniProt P43489 29-216)
T1 chain: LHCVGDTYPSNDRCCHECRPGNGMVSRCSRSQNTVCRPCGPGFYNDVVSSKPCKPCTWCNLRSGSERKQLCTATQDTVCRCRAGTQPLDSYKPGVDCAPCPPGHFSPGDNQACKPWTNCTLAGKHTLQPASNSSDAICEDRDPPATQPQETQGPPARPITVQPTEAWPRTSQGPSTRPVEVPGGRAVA

T2: mouse OX40 (mouse, UniProt P47741 20-211, limits assumed)
T2 construct: Capture on Ni-NTA implies a His tag; also called mouse OX40 antigen
T2 sequence (looked up): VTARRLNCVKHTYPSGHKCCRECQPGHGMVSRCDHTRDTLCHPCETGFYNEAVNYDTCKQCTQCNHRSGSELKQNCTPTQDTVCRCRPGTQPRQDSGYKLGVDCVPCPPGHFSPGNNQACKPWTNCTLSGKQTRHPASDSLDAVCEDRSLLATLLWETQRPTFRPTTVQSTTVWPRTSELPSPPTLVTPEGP

T3: Recombinant human OX40/His (human, UniProt P43489 29-216, limits assumed)
T3 construct: SPR analyte; also called human OX40 proteins; not shown: His tag
T3 sequence: T1 chain

T4: membrane-bound human OX40 (on human OX40-expressing cells) (human, UniProt P43489 29-277)
T4 construct: also called human OX40-expressing MJ cells; OX40+ HEK293-NFkB-luciferase reporter cells
T4 sequence: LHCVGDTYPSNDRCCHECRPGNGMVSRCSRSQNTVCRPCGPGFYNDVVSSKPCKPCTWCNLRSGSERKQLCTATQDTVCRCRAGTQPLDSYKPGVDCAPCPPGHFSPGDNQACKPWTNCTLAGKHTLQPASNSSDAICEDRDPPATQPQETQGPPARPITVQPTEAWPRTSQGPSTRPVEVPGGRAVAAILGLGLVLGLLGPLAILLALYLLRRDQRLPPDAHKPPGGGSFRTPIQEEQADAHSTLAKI

T5: human OX40 antigen (soluble, titrated in the ELISA of Example 1) (UniProt P43489 29-216)
T5 chain: T1 chain

B1: 5-A8 variant anti-OX40 antibody (antibody, V domains shown)
VH: QVQLVQSGAEVKKPGASVKVSCKTSGYTFTGYYLHWVRQAPGQGLEWMGIINPSDGSTRNAQKFEGRVTMTRDTSTSTVYMELSSLSPEDTAVYYCARDLEYIGSGSLSWFDPWGQGTLVTVSS
VL: QSALTQPASVSGSPGQSITISCTGSSSDIGGYNSVSWYQQYPGKAPKLIIYDVNNRPSGVSNRFSGSKSGNTASLTISGLQAEDEADYYCSSYTFHTGLVYVFGTGTKVTVL
B2: 5-G8 variant anti-OX40 antibody (antibody, V domains shown)
VH: B1 VH
VL: B1 VL with F95Y, H96Y, G98E
B3: 5-F5 variant anti-OX40 antibody (antibody, V domains shown)
VH: B1 VH
VL: B1 VL with F95Y, H96D
B4: 5-C8 variant anti-OX40 antibody (antibody, V domains shown)
VH: B1 VH
VL: B1 VL with F95H, H96N
B5: 5-A6 variant anti-OX40 antibody (antibody, V domains shown)
VH: B1 VH
VL: B1 VL with H96D
B6: 2B4 wild type anti-OX40 antibody (antibody, V domains shown)
VH: B1 VH with V2M
VL: QPVLTQPASVSGSPGQSITISCTGTSSDLGAYDYVSWYQQQPGQAPKLIIYDVNNRPSGVSNRFSGSKSGNTASLTISGLQAEDEADYYCSSYTSSSTLVYVFGTGTKVTVL
notes: Fully human antibody of an IgG class, captured or detected through human Fc; the isotype control used was IgG1; also called 2B4 (WT); wild type 2B4
B7: 5-H6 variant anti-OX40 antibody (antibody, V domains shown)
VH: B1 VH
VL: B1 VL with F95Y, H96D, T97N, G98D

Biological target: T1, Recombinant human OX40/His
Test: SPR
Work on B1 yielded a Kd of 4.37 nM. B2 gave a Kd of 3.8 nM. B3 showed a Kd of 3.01 nM. For B4, the Kd was 4.39 nM. In the case of B5, the Kd is reported as 2.41 nM. B6 showed a Kd of 332 nM. B7 was tested, and the Kd was 3.51 nM.

Each molecule was assayed against T2, mouse OX40 (assay: ELISA, OX40 antigen captured on Ni-NTA plate, antibody at 1 ug/mL).
Description: Ni-NTA plate was captured with 50 ul per well of human, mouse, and rhesus OX40 antigen solutions at a concentration of 1 ug/ml in PBS and incubated 1 hour at room temperature. After washing the plate with 0.05% PBS/Tween, 1 ug/mL the human anti-OX40 antibodies in Blocker™ Casein in PBS (Thermo Fisher Catalog Number: 37528) were added with 50 ul per well and incubated for one hour at room temperature. The plate was washed again with 0.05% PBS/Tween and incubated with 50 ul of Jackson Immuno Research Peroxidase AffiniPure Goat Anti-Human IgG, Fcγ Fragment (Catalog Number: 109-035-098) for one hour at room temperature. After washing, the plate was developed with 1-Step™ Ultra TMB-ELISA Substrate Solution (Thermo Fisher Catalog Number: 34028). The plate was read in the FlexStation 3 at OD 450.
B6: no binding (tested: 1 ug/mL).

What follows are molecules tested against T3, Recombinant human OX40/His (assay: SPR (Biacore T200), antibody captured by anti-human Fc, OX40/His as analyte, 1:1 model).
Description: Kinetic interactions between antibodies and human OX40 proteins were measured at 25° C. using Biacore T200 surface plasmon resonance (GE Healthcare). Anti-human fragment crystallizable region (Fc region) antibody was immobilized on a CMS sensor chip to approximately 8000 resonance units (RU) using standard N-hydroxysuccinimide/N-Ethyl-N′-(3-dimethylaminopropyl) carbodiimide hydrochloride (NHS/EDC) coupling methodology. The anti-OX40 antibody (2 μg/mL) was captured for 60 seconds at a flow rate of 10 μL/minute. Recombinant human OX40/His was serially diluted in a running buffer of 0.01 M HEPES pH 7.4, 0.15 M NaCl, 3 mM EDTA, 0.05% v/v Surfactant P20 (HBS-EP+). All measurements were conducted in HBS-EP+ buffer with a flow rate of 30 μL/minute. A 1:1 (Langmuir) binding model was used to fit the data.
In the case of B1, the Kd is reported as under 5 nM. B2 showed a Kd of under 5 nM. For B3, the Kd was under 5 nM. With B4 the Kd was under 5 nM. B5 was tested, and the Kd was under 5 nM. With B7 the Kd was under 5 nM.

The molecules below were run against T4, membrane-bound human OX40 (on human …) (assay: flow cytometry on human OX40-expressing MJ cells).
B6: binds.

Biological target: T1, Recombinant human OX40/His
Test: SPR
Remark: another data set of the same source
With B6 the Kd was 332 nM.

What follows are molecules tested against human OX40/His (UniProt P43489) (assay: SPR).
Work on MOXR0916/RG7888 yielded a Kd of 3.2 nM.

Biological target: T5, human OX40 antigen (soluble, titrated …)
Test: ELISA, immobilized Ab
For B1, the IC50 was 0.0163 mg/L. In the case of B2, the IC50 is reported as 0.0254 mg/L. With B3 the IC50 was 0.0263 mg/L. With B4 the IC50 was 0.00353 mg/L. For B5, the IC50 was 0.0117 mg/L. B6 showed an IC50 of 0.168 mg/L. B7 gave an IC50 of 0.0275 mg/L.
